Data from patent US20230265171A1.
Read-outs that look alike come from different tables or passages of the source.

Tests used:
[1] = target: SARS-CoV-2 spike receptor binding domain (RBD) (SARS-CoV-2) (UniProt P0DTC2); assay: ELISA, coated antigen
[2] = target: SARS-CoV-2 spike glycoprotein S1 region (SARS-CoV-2) (UniProt P0DTC2); assay: ELISA, coated antigen
[3] = target: SARS-CoV-2 spike receptor binding domain (RBD) (SARS-CoV-2) (UniProt P0DTC2); assay: ELISA, coated antigen; remark: listed apart in the source
[4] = target: SARS-CoV-2 spike glycoprotein S1 region (SARS-CoV-2) (UniProt P0DTC2); assay: ELISA, coated antigen; remark: listed apart in the source
[5] = target: Dengue serotype 1 envelope antigens on pseudotype virus (Dengue virus serotype 1); assay: cell-based or functional assay
[6] = target: MERS CoV S1 (MERS CoV) (UniProt K9N5Q8); assay: ELISA, antigen coated at 2 µg/mL
[7] = target: HCoV-NL63 S1 (HCoV-NL63) (UniProt Q6Q1S2); assay: ELISA, antigen coated at 2 µg/mL
[8] = target: SARS CoV RBD (SARS-CoV) (UniProt P59594); assay: ELISA, antigen coated at 2 µg/mL
[9] = target: HCoV-229E S1 (HCoV-229E) (UniProt P15423); assay: ELISA, antigen coated at 2 µg/mL
[10] = target: SARS-CoV-2 spike on GFP reporter pseudotype virus (SARS-CoV-2) (UniProt P0DTC2); assay: cell-based or functional assay
[11] = target: SARS-CoV-2 spike receptor binding domain (RBD) (SARS-CoV-2) (UniProt P0DTC2); assay: RBD:ACE2-His blocking ELISA, competitor ACE2-His

Substance	EC50 [1]	EC50 [2]	EC50 [3]	peak OD signal [3]	EC50 [4]	peak OD signal [4]	Neutralization IC50 [5]	EC50 [6]	EC50 [7]	EC50 [8]	EC50 [9]	CoV-2 pseudotype neutralization IC50 [10]	IC50 [11]
IVIG (Gamunex)	1250 µg/mL	1380 µg/mL	1270 µg/mL	2.26 OD	1410 µg/mL	1.99 OD	12.2 µg/mL	1330 µg/mL	140 µg/mL	1280 µg/mL	96 µg/mL	–	–
SARS CoV mAb [CR3022] (antibody)	0.088 µg/mL	0.078 µg/mL	–	–	–	–	–	–	–	–	–	0.1 mg/mL	–
SARS CoV-2 mAb [SAD-S35] (antibody)	0.057 µg/mL	0.058 µg/mL	–	–	–	–	–	–	–	–	–	0.00026 mg/mL	1.1 µg/mL
